Tests used:
[1] = Distribution coefficient LogD7.4, shake-flask n-octanol/PBS; assay type: physicochemical; details: shake-flask n-octanol/PBS pH 7.4, 500 µL each, 10 µL tracer in saline, vortexed 30 s, shaken 15 min, gamma counter, mean ± SD
Experimental: The tracer distribution coefficient in n-octanol/PBS pH 7.4 (LogD7.4) was determined using a shake-flask methodology. To an Eppendorf tube containing 500 µL n-octanol and 500 µL PBS, 10 µL tracer solution in saline was added. The vial was vortexed for 30 s and placed on an Eppendorf shaker for 15 min. After incubation, layers were separated by centrifugation (1 min at 10.000 rpm) and a fraction of the n-octanol layer was pipetted off. To minimize contamination of the bottom layer with the n-octanol layer, the bottom PBS layer was collected by puncturing the bottom of the Eppendorf tube with a 22G needle and aspirating a fraction of the PBS layer. Collected fractions were weighted to correct for collected volume and subsequently measured on a calibrated gamma counter and corrected for decay. LogD7.4 was calculated as [drawing 1] .

[2] = system: S. aureus USA300 MRSA strain; assay: Competition with unlabeled vancomycin; assay type: binding, Staphylococcus aureus
Experimental: [^18F]FB-vancomycin was excluded due to its limited in vitro and in vivo stability. On the day of the experiment, a fresh culture was started in 10 mL of TSB and grown to an OD600 of 2.0. […] Bacteria were added to the dilutions to obtain a final OD600 of 0.2 and the vial was briefly vortexed to ensure proper mixing. Tracer was added (125 kBq per mL, 40.3 pg and 0.5 pg of [^18F]BODIPY-FL-vancomycin and [^18F]PQ-VE1-vancomycin, respectively) and the vial was vortexed again. After 30 min incubation, aliquots were collected in 2 mL Eppendorf tubes and washed twice with PBS by centrifugation. […] Measurements were corrected for background and decay. Results are reported as 10^3 counts per s (kBq).

[3] = in vivo; details: in vivo; for tissue uptake at 0.5 h / tissue uptake at 1 h / tissue uptake at 1.5 h: male, C57BL/6, mouse, 2 MBq, total radioactivity, Biodistribution
Experimental: All murine experiments were approved by the Animal Care and Use Committee of the University of Groningen under license protocol number 2114768-01-001. In vivo biodistribution was performed in male C57BL/6 mice (age 8 weeks, 25 g). Per tracer, the animals were divided in three groups based on the tracer distribution times (30 min, 60 min, and 90 min). […] Each experimental arm (i.e. time point) consisted of three animals. […] Tracer was administered at t = 0 via penile vein injection (2.0 ± 0.9 MBq in 100 µL 0.9% saline solution, Supplemental Table 2). After tracer administration, the animals were transferred to a Siemens Focus 220 microPET small animal scanner (Siemens, Munich, Germany) and scanned for the designated time, followed by a transmission scan of 10 min for attenuation correction. PET data were normalized and corrected for decay, after which the PET data were reconstructed using OSEM2D-Z1-SC-256. The PET data frames used for reconstruction were: 6 × 10 s, 4 × 30 s, 2 × 60 s, 120 s, 180 s, 4 × 300 s, 3 × 600 s, 1200 s or until the designated scan time was reached, taking into account a 10-min transmission scan following the emission scan. Next, animals were terminated, and organs harvested to assay biodistribution in a calibrated gamma counter (Wizard2, Perkin Elmer, Waltham, United States).

[4] = Summary of tracer stability in vitro and in vivo
Experimental: Stability of the tracers was determined in PBS and human plasma. In a typical experiment, 1 MBq of radioactivity (10–20 µL) was added to 250 µL of PBS or human plasma. Samples were heated to 37 °C on a shaker and sampled at fixed intervals. For samples containing human plasma, protein was precipitated using two volumes of cold MeCN. Precipitated samples were briefly centrifuged to pellet the insoluble fraction and supernatant was used for stability assessment. Supernatant (1 µL) was loaded on a TLC plate and imaged using BAS-IP MS 2025 E plates (Fujifilm, Tokyo, Japan) on an Amersham Typhoon Biomolecular Imager (GE Healthcare Bio-Sciences Corp, Chicago, United States) equipped with a phosphor imaging stage. [^18F]BODIPY-FL-vancomycin has an Rf of 0.68 (petroleum ether/MeOH 3:1), [^18F]FB-vancomycin has an Rf of 0.66 (2 M NaOAc/MeOH 5:1). For [^18F]PQ-VE1-vancomycin, conditions described in [44] were used.

[5] = S. aureus USA300, OD600 0.2, 125 kBq tracer per mL, 30 min incubation, gamma counter

Structure (SMILES): Cc1cc(C)n2c1C=C1C=CC(CCC(=O)N(C)[C@H](CC(C)C)C(=O)N[C@H]3C(=O)N[C@@H](CC(N)=O)C(=O)N[C@H]4C(=O)N[C@H]5C(=O)N[C@H](C(=O)N[C@H](C(=O)O)c6cc(O)cc(O)c6-c6cc5ccc6O)[C@H](O)c5ccc(c(Cl)c5)Oc5cc4cc(c5O[C@@H]4O[C@H](CO)[C@@H](O)[C@H](O)[C@H]4O[C@H]4C[C@](C)(N)[C@H](O)[C@H](C)O4)Oc4ccc(cc4Cl)[C@H]3O)=[N+]1[B-]2(F)F [[^18F]BODIPY-FL-vancomycin]
- LogD7.4 [1]: -1.72 ± 0.02 (n = 10)
- Vancomycin concentrations at which tracer binding is outcompeted, compared with [^18F]PQ-VE1-vancomycin ([2]; S. aureus USA300, 30 min incubation): slightly lower
- Tracer binding to S. aureus at a concentration of 1024 µg/mL vancomycin [2, 5]: reduced to baseline
- Tracer binding to S. aureus at vancomycin concentrations below 2 µg/mL [2, 5]: not significantly inhibited
- Tracer binding to S. aureus at vancomycin concentrations of up to 64 µg/mL [2, 5]: signal over background was still detected
- tissue uptake at 0.5 h ([3]; iv, Bladder): 4.83 %ID/g
- tissue uptake at 1 h ([3]; iv, Bladder): 7.62 %ID/g
- tissue uptake at 1.5 h ([3]; iv, Bladder): 9.43 %ID/g
- tissue uptake at 0.5 h ([3]; iv, Bone): 1.2 %ID/g
- tissue uptake at 1 h ([3]; iv, Bone): 2.71 %ID/g
- tissue uptake at 1.5 h ([3]; iv, Bone): 3.27 %ID/g
- tissue uptake at 0.5 h ([3]; iv, Brain): 0.05 %ID/g
- tissue uptake at 1 h ([3]; iv, Brain): 0.09 %ID/g
- tissue uptake at 1.5 h ([3]; iv, Brain): 0.05 %ID/g
- tissue uptake at 0.5 h ([3]; iv, Fat): 0.59 %ID/g
- tissue uptake at 1 h ([3]; iv, Fat): 0.67 %ID/g
- tissue uptake at 1.5 h ([3]; iv, Fat): 0.49 %ID/g
- tissue uptake at 0.5 h ([3]; iv, Heart): 0.96 %ID/g
- tissue uptake at 1 h ([3]; iv, Heart): 1.25 %ID/g
- tissue uptake at 1.5 h ([3]; iv, Heart): 0.81 %ID/g
- tissue uptake at 0.5 h ([3]; iv, Kidneys): 7.77 %ID/g
- tissue uptake at 1 h ([3]; iv, Kidneys): 7.13 %ID/g
- tissue uptake at 1.5 h ([3]; iv, Kidneys): 7 %ID/g
- tissue uptake at 0.5 h ([3]; iv, Large intestine): 0.93 %ID/g
- tissue uptake at 1 h ([3]; iv, Large intestine): 1.34 %ID/g
- tissue uptake at 1.5 h ([3]; iv, Large intestine): 0.91 %ID/g
- tissue uptake at 0.5 h ([3]; iv, Liver): 2.27 %ID/g
- tissue uptake at 1 h ([3]; iv, Liver): 3.47 %ID/g
- tissue uptake at 1.5 h ([3]; iv, Liver): 2.86 %ID/g
- tissue uptake at 0.5 h ([3]; iv, Lungs): 4.59 %ID/g
- tissue uptake at 1 h ([3]; iv, Lungs): 6.68 %ID/g
- tissue uptake at 1.5 h ([3]; iv, Lungs): 4.39 %ID/g
- tissue uptake at 0.5 h ([3]; iv, Muscle): 0.42 %ID/g
- tissue uptake at 1 h ([3]; iv, Muscle): 0.66 %ID/g
- tissue uptake at 1.5 h ([3]; iv, Muscle): 0.46 %ID/g
- tissue uptake at 0.5 h ([3]; iv, Plasma): 2.41 %ID/g
- tissue uptake at 1 h ([3]; iv, Plasma): 3.25 %ID/g
- tissue uptake at 1.5 h ([3]; iv, Plasma): 2.13 %ID/g
- tissue uptake at 0.5 h ([3]; iv, Small intestine): 1.1 %ID/g
- tissue uptake at 1 h ([3]; iv, Small intestine): 2.01 %ID/g
- tissue uptake at 1.5 h ([3]; iv, Small intestine): 1.89 %ID/g
- tissue uptake at 0.5 h ([3]; iv, Spleen): 1.41 %ID/g
- tissue uptake at 1 h ([3]; iv, Spleen): 3.02 %ID/g
- tissue uptake at 1.5 h ([3]; iv, Spleen): 2.73 %ID/g
- tissue uptake at 0.5 h ([3]; iv, Stomach): 1.16 %ID/g
- tissue uptake at 1 h ([3]; iv, Stomach): 1.59 %ID/g
- tissue uptake at 1.5 h ([3]; iv, Stomach): 0.98 %ID/g
- tissue uptake at 0.5 h ([3]; iv, Whole blood): 1.68 %ID/g
- tissue uptake at 1 h ([3]; iv, Whole blood): 1.86 %ID/g
- tissue uptake at 1.5 h ([3]; iv, Whole blood): 1.1 %ID/g
- Accumulation ([3]; mouse): Accumulation in liver, kidneys and lungs
- Muscle uptake ([3]; mouse): Low muscle uptake
- Crossing of the blood-brain barrier (BBB) ([3]; mouse, iv): no substantial signal was observed in the brain
- Stability [4]: Stable in vitro and in vivo up to 2 h.

From paper PMC11224109, “Synthesis and preclinical evaluation of novel ^18F-vancomycin-based tracers for the detection of bacterial infections using positron emission tomography” (European Journal of Nuclear Medicine and Molecular Imaging, 2024)
